The target in assay [1] is T1, recombinant human TROP2 extracellular domain (aa 1-274) comprising His tag (human, UniProt P09758 27-274).
T1 construct: Used here for all assays on recombinant human TROP2 (ELISA, immunoblot, SPR, crystal), although only some of them name the catalogue number; also called human recombinant TROP2; recombinant human TROP2 protein; not shown: His tag
T1 sequence: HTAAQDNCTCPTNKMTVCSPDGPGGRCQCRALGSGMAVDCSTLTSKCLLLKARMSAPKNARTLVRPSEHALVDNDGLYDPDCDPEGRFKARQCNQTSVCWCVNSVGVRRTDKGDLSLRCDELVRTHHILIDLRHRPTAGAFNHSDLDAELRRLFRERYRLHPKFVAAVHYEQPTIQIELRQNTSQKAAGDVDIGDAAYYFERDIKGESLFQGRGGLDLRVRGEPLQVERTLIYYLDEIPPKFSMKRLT
Nature of the assay: competitive ELISA on coated recombinant human TROP2, competitor 1428.6 pM His-tagged KD006, anti-His-HRP secondary Ab. The method, then:
The epitope characterization was assessed by competitive ELISA (FIG. 8 and FIG. 9). Microplates were coated with human recombinant TROP2 at 4° C. overnight. After washing, plates were blocked with blocking buffer (PBS+2% BSA), for 1 hour at room temperature. Meanwhile, the dilution for anti-TROP2 VHH sdAbs was prepared with blocking buffer making two different dilutions depending on the tag. For sdAbs with His tag, the antibody was diluted to 28571.4 pM. For sdAbs without tag, antibodies were serially diluted from 2857142.9 pM to 0.29 pM (8 dilutions, 10×). […] After washing two times, the mixed antibody contents were added into the wells and the plates were incubated for 2 hours at room temperature. The HRP-conjugated anti-6× His was diluted to 1:5000 and added to the wells after washing three times. Any unbound conjugate was removed by washing after 1 hour incubation at room temperature, and the colorimetric reaction was performed by adding the same volume of Supersignal ELISA Pico Luminol/Enhancer and SuperSignal ELISA Pico Stable Peroxide Solution and detected on SpectraMax i3x Microplate Reader. Positive and negative controls were included in each plate.

The target in another assay is T2, HEK-TROP2 Δ27-36.
T2 construct: also called TROP2 delta 27-36
T2 membrane protein on transfected HEK cells: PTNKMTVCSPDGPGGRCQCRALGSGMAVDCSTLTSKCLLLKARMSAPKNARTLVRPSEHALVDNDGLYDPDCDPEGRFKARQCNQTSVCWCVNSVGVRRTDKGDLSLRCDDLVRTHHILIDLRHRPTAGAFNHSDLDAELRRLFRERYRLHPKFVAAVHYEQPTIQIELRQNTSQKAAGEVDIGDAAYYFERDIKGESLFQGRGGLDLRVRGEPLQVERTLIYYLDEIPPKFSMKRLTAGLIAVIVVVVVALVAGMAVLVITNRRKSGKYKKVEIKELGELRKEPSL
Nature of the assay: flow cytometry, 100 nM antibody, transiently transfected HEK cells, APC anti-human Fc. The method, then: (§1) To determine the effect of TROP2 truncations on the binding ability of anti-TROP2 sdAbs, the HEK parental cells were transiently transfected with human TROP2 mutants by lipofectamine. 24 hours after transfection, cells were collected and stained with anti-TROP2 antibodies (FIG. 13A and FIG. 13B). In brief, 1×10⁵ cells were incubated with an Fc receptor blocking antibody (1/100 dilution) for 10 minutes at room temperature. Anti-TROP2 antibodies were diluted in FACS staining buffer to 100 nM and added and incubated with cells for 30 minutes on ice. After washing three times with FACS staining buffer, APC-conjugated secondary antibodies recognizing the human Fc region (Biolegend, Cat #410712) were mixed with cells. After staining for 30 minutes, cells were washed three times, followed by resuspension into 100 μL of 7-Amino-Actinomycin D (7-AAD) solution (BD Biosciences, Cat #559925).

Another assay has as its target T3, HEK-TROP2 Δ27-44.
T3 construct: also called TROP2 delta 27-44
T3 membrane protein on transfected HEK cells: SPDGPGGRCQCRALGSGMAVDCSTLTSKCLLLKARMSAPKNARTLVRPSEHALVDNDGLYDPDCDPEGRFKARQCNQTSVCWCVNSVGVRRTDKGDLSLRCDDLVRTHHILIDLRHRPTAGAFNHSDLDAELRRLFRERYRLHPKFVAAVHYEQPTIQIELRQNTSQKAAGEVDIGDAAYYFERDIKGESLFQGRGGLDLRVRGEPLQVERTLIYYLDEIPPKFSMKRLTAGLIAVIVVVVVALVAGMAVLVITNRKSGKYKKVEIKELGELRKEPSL
The assay is described as above. The protocol:
as §1

Assay [2] has as its target T4, TROP2 delta 27-56 on HEK cells (human, UniProt P09758 1-323).
T4 construct: Human TROP2 with residues 27-56 deleted, transiently transfected into HEK cells; also called TROP2 with 27-56 regions truncated
T4 chain: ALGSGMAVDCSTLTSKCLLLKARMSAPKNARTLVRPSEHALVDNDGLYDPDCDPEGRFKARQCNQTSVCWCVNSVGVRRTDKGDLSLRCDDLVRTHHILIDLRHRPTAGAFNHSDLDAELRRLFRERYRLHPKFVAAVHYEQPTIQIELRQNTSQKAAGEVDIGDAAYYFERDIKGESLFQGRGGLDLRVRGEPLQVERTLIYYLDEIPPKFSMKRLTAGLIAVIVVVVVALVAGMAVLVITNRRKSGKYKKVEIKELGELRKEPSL
The assay is described as above. The protocol: as §1

A further assay deals with T5, recombinant human EpCAM (human, UniProt P16422 24-265).
T5 construct: also called rhEpCAM
T5 sequence (looked up): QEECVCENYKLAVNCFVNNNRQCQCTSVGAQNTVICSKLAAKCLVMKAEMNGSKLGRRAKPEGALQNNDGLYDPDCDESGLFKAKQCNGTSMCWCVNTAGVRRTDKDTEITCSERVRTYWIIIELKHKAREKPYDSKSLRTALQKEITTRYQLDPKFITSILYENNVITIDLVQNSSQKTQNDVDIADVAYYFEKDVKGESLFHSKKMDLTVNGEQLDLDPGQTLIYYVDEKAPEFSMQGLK
Description: ELISA. Background: In an ELISA, binding on a coated surface is turned into a signal by an enzyme label.

Assay [3] concerns the target T6, recombinant human IGFBP-1 (human, UniProt P08833 26-259).
T6 construct: also called rhIGFB-1
T6 sequence (looked up): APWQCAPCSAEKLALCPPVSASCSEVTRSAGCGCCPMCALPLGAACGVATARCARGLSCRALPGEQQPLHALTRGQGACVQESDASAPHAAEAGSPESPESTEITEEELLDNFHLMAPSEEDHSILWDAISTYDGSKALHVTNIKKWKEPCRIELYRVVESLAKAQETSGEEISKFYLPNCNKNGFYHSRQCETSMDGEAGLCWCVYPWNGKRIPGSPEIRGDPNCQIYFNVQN
Nature of the assay: ELISA.

Assay [4] concerns the target T1, recombinant human TROP2 extracellular …. Nature of the assay: ELISA on coated recombinant human TROP2, 0.00256-200 nM, RLU. The protocol: Human TROP2 recombinant proteins were coated on 96-well ELISA plates at the concentration of 1 μg/mL. Plates were covered with adhesive plate cover and stored at 4° C. overnight. The next day, plates were washed 3× with washing buffer (PBS with 0.1% Tween™ 20). Plates were blocked with 2% fat-free BSA in washing buffer for 1 hour at 37° C. During the incubation time, the TROP2 reference antibodies, as well as the humanized variants, were diluted in the blocking buffer to the indicated concentrations. […] After blocking, the blocking buffer was removed from the wells and 100 μL of anti-TROP2 sdAbs dilutions were transferred to the corresponding wells. Plates were covered with adhesive plates cover and incubated at 37° C. for 1 hour. During the primary antibody incubation, the secondary antibody (goat anti-human IgG, HRP conjugated) was diluted 1 in 5000 with the blocking buffer. Plates were washed 3× with blocking buffer, followed by secondary antibody incubation for another 1 hour at 37° C. After the secondary antibody incubation, plates were washed 3× with washing buffer and added with 100 μL of ELISA chemiluminescent substrate (Thermofisher). The luminescence signal was detected by SpectraMax i3x at […].

B1: KD006 (antibody, human IgG1, V domains shown)
VH: QVQLQESGGGLVQAGNSLRLSCVASVRTFSTKAMGWFRQAPGKEREFTAAISESGSTYYADSVKDRFTISRDNVKNTVYLQMNSLKPEDTAVYYCGVKWYSGSFDDTRSYDYWGQGTQVTVSS
notes: also called anti-TROP2 sdAb KD006
Take B1: in assay [1], the “IC50 (read off the curve)” value was about 4 nM. Besides, the binding result with HEK-TROP2 Δ27-36 was “binds”; in the assay with HEK-TROP2 Δ27-44 it was “binds”; in assay [2] it was “binds”; in the assay with recombinant human EpCAM, “no binding”; in assay [3], “no binding”.

B2: KD020 (antibody, V domains shown)
VH: EVQLVESGGGLVQPGGSLRLSCAASGFPFSSADMHWVRQAPGKGLVWVSRINADGSKTSYADTVKGRFTISRDNAKNTLYLQMNSLRAEDTAVYYCARAKLTDTHYVEDYWGQGTLVTVSS
notes: KD002 humanized variant
B2: the binding result in assay [4] is reported as “binds”.

The values above are taken from patent publication US20240360242A1 (KISOJI BIOTECHNOLOGY, published 2024).
